Reference: publication PMC2516929, “Yersinia enterocolitica Serum Resistance Proteins YadA and Ail Bind the Complement Regulator C4b-Binding Protein” (PLoS Pathogens, 2008)

Columns and labels:
[1] = target: T1, Ail of Y. enterocolitica serotype O:3, expressed in trans from pTM100-ail on strain YeO3-c-Ail-OCR (Y. enterocolitica serotype O:3, UniProt Q70AM3 24-178); experiment: radioligand binding; 125I-C4bp (or 125I-BSA) with 3x10^8 bacteria in hypotonic 1/3 GVBS (50 mM NaCl), 30 min at 37°C; bacteria pelleted through 20% sucrose; bound as percent of total radioactivity; conditions: one partner purified
T1 construct: Ail, Y. enterocolitica serotype O:3, ail gene cloned as 1711 bp PCR fragment into pTM100; GenBank protein CAE53849; Same protein as m5, from a plasmid; also called Ail (complemented); YeO3-c-Ail-OCR/pTM100-ail; source: pTM100-ail (cloned ail gene) in Y. enterocolitica YeO3-c-Ail-OCR (YadA-, Ail-, O-ag-, OC-), on the bacteria; overexpressed
T1 sequence: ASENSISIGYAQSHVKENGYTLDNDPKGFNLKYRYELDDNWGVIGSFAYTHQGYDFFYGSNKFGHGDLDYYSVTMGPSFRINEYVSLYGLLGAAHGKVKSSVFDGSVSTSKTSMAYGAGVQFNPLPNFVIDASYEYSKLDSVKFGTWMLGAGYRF

[2] = target: T2, YadA of Y. enterocolitica serotype O:3 (strain 6471/76), on the bacterial surface (Y. enterocolitica serotype O:3 (strain …, UniProt P31489 26-455)); experiment: radioligand binding; 125I-C4bp with 3x10^8 bacteria in 1/3 GVBS with NaCl from 50 to 650 mM; binding as percent of that at 50 mM NaCl; conditions: one partner purified
T2 construct: adhesin YadA, Y. enterocolitica 6471/76 serotype O:3, GenBank protein CAA32086; trimeric outer membrane protein; also called YadA (wild type, YeO3); source: endogenous (virulence plasmid pYV), on Y. enterocolitica O:3 strain 6471/76 (YeO3), grown in RPMI 1640 at 37°C
T2 sequence: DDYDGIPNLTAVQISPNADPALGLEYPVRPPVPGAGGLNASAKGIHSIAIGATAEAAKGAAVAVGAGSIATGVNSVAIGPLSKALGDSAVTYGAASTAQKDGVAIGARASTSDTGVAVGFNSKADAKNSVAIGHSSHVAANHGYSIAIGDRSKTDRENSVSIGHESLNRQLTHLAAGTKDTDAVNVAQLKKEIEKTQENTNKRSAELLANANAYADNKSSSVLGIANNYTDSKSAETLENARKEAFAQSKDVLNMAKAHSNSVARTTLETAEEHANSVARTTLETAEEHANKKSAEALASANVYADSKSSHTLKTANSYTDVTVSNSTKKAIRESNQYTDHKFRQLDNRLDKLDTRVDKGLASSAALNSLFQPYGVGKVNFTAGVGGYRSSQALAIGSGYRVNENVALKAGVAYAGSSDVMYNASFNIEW

B1: C4b-binding protein (C4bp) with protein S (complex)
chain 1: NCGPPPTLSFAAPMDITLTETRFKTGTTLKYTCLPGYVRSHSTQTLTCNSDGEWVYNTFCIYKRCRHPGELRNGQVEIKTDLSFGSQIEFSCSEGFFLIGSTTSRCEVQDRGVGWSHPLPQCEIVKCKPPPDIRNGRHSGEENFYAYGFSVTYSCDPRFSLLGHASISCTVENETIGVWRPSPPTCEKITCRKPDVSHGEMVSGFGPIYNYKDTIVFKCQKGFVLRGSSVIHCDADSKWNPSPPACEPNSCINLPDIPHASWETYPRPTKEDVYVVGTVLRYRCHPGYKPTTDEPTTVICQKNLRWTPYQGCEALCCPEPKLNNGEITQHRKSRPANHCVYFYGDEISFSCHETSRFSAICQGDGTWSPRTPSCGDICNFPPKIAHGHYKQSSSYSFFKEEIIYECDKGYILVGQAKLSCSYSHWSAPAPQCKALCRKPELVNGRLSVDKDQYVEPENVTIQCDSGYGVVGPQSITCSGNRTWYPEVPKCEWETPEGCEQVLTGKRLMQCLPNPEDVKMALEVYKLSLEIEQLELQRDSARQSTLDKEL
chain 2: SDAEHCPELPPVDNSIFVAKEVEGQILGTYVCIKGYHLVGKKTLFCNASKEWDNTTTECRLGHCPDPVLVNGEFSSSGPVNVSDKITFMCNDHYILKGSNRSQCLEDHTWAPPFPICKSRDCDPPGNPVHGYFEGNNFTLGSTISYYCEDRYYLVGVQEQQCVDGEWSSALPVCKLIQEAPKPECEKALLAFQESKNLCEAMENFMQQLKESGMTMEELKYSLELKKAELKAKLL
chain 3: ANSLLEETKQGNLERECIEELCNKEEAREVFENDPETDYFYPKYLVCLRSFQTGLFTAARQSTNAYPDLRSCVNAIPDQCSPLPCNEDGYMSCKDGKASFTCTCKPGWQGEKCEFDINECKDPSNINGGCSQICDNTPGSYHCSCKNGFVMLSNKKDCKDVDECSLKPSICGTAVCKNIPGDFECECPEGYRYNLKSKSCEDIDECSENMCAQLCVNYPGGYTCYCDGKKGFKLAQDQKSCEVVSVCLPLNLDTKYELLYLAEQFAGVVLYLKFRLPEISRFSAEFDFRTYDSEGVILYAESIDHSAWLLIALRGGKIEVQLKNEHTSKITTGGDVINNGLWNMVSVEELEHSISIKIAKEAVMDINKPGPLFKPENGLLETKVYFAGFPRKVESELIKPINPRLDGCIRSWNLMKQGASGIKEIIQEKQNKHCLVTVEKGSYYPGSGIAQFHIDYNNVSSAEGWHVNVTLNIRPSTGTGVMLALVSGNNTVPFAVSLVDSTSEKSQDILLSVENTVIYRIQALSLCSDQQSHLEFRVNRNNLELSTPLKIETISHEDLQRQLAVLDKAMKAKVATYLGGLPDVPFSATPVNAFYNGCMEVNINGVQLDLDEAISKHNDIRAHSCPSVWKKTKNS
modifications: 125I label (Iodogen method) in the 125I-C4bp assays; labelled chain and residues not stated
notes: eight CCP domains; the predominant form has seven identical alpha chains; three CCP domains; one beta chain in the predominant form; protein S, human; co-purified with C4bp from plasma ('C4bp with protein S'); also called 125I-C4bp; serum C4bp; source: purified from pooled human plasma (with protein S); copies: 7 + 1 +
fold C4bp binding capacity against strain YeO3-c-OCR [1]: ~4 fold | fold decrease of C4bp binding at 100 mM NaCl against 50 mM NaCl [2]: 2 fold
